The target of one data set is T1, phiC31 integrase C374A (Streptomyces phage phiC31, UniProt Q38194 1-613, C374A).
T1 sequence: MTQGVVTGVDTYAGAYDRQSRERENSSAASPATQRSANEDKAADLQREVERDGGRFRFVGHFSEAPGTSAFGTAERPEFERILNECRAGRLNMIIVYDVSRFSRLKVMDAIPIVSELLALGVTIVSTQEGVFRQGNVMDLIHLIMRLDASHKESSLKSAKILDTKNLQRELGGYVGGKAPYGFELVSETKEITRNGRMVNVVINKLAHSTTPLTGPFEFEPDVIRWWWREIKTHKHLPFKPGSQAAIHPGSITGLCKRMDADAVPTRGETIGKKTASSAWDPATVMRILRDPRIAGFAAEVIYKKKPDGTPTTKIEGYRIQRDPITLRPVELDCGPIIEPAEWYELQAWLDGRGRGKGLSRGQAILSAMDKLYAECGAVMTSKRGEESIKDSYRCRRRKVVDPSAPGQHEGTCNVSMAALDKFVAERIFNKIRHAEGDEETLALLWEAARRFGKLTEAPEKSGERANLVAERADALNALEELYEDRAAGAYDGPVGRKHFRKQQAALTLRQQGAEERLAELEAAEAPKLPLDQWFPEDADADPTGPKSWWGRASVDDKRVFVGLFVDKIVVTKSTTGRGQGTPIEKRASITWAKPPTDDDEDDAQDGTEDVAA
Description: EMSA; 50 ng/ul Poly (competitor (so in the source)), 0.05% NP-40, 50 mM KCl, 5 mM MgCl2, 10 mM EDTA, 20 ul, 0.4 ng (16 fmol) probe; 30 min at room temperature (Methods) or 30 C; pH not stated; synapsis 2 h at 30 C. As to conditions: protein: recombinant; tags: C-terminal His; chain copies: 2; label: biotin, double-strand end-labeled; blunt.

Data set [1] addresses T2, phiC31 integrase G182A/F183A (Streptomyces phage phiC31, UniProt Q38194 1-613, G182A;F183A).
T2 sequence: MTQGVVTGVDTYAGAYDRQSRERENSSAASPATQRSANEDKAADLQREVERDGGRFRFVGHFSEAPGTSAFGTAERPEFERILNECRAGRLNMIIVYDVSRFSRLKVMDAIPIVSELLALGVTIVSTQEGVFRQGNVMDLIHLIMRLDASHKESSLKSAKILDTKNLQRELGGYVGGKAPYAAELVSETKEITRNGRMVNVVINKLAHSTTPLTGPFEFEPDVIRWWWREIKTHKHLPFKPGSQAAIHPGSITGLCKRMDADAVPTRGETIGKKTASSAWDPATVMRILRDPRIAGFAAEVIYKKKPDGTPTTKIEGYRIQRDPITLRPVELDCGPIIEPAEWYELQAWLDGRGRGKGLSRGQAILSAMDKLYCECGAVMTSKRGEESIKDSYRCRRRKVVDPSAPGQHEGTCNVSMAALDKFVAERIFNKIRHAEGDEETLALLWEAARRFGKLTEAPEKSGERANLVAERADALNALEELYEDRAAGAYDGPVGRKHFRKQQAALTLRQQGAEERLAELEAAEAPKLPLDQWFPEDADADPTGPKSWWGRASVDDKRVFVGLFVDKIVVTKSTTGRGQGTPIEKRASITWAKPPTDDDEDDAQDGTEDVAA
The data set is described as above. As to conditions: protein: recombinant; tags: C-terminal His; chain copies: 2; label: biotin, double-strand end-labeled; blunt.

The next data set addresses T3, phiC31 integrase WT (Streptomyces phage phiC31, UniProt Q38194 1-613).
T3 sequence: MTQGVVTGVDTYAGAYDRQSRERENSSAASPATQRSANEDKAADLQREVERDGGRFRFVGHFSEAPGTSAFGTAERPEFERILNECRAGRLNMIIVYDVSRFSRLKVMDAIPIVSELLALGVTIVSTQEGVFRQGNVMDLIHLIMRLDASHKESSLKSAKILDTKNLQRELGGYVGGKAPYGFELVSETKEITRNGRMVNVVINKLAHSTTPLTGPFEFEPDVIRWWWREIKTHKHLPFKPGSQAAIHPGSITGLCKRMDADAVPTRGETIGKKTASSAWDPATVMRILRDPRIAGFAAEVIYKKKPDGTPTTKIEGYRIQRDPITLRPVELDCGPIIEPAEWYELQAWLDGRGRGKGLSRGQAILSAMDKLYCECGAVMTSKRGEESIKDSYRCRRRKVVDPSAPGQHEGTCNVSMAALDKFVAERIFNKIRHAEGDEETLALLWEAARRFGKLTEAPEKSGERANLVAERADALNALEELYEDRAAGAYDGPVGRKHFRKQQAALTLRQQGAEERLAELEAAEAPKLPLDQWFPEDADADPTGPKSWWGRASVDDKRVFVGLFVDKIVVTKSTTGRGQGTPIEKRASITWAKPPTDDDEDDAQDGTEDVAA
The data set can be described thus: EMSA; complexes I, II, III; 50 ng/ul Poly (competitor (so in the source)), 0.05% NP-40, 50 mM KCl, 5 mM MgCl2, 10 mM EDTA, 20 ul, 0.4 ng (16 fmol) probe; 30 min at room temperature (Methods) or 30 C; pH not stated; synapsis 2 h at 30 C. The settings on record: protein: recombinant; tags: C-terminal His (pET22b); chain copies: 2; label: biotin, double-strand end-labeled; blunt. For orientation: Mobility shift assays separate free from complexed probe on a gel.

B1: attP 50 bp (dsDNA)
DNA 1: GTAGTGCCCCAACTGGGGTAACCTTTGAGTTCTCTCAGTTGGGGGCGTAG
DNA 2: CTACGCCCCCAACTGAGAGAACTCAAAGGTTACCCCAGTTGGGGCACTAC
Take B1: the results for the binding result (with phiC31 integrase C374A; in data set [1]; with phiC31 integrase WT) were “no binding”, “no binding” and “binds”, respectively.

The values above are taken from paper PMC2810336, “Mutational Analysis of Highly Conserved Residues in the Phage PhiC31 Integrase Reveals Key Amino Acids Necessary for the DNA Recombination”.
